Test system: MS2 coat protein
Assay: apparent KD of MS2 coat protein; designed switch direction (-1 OFF switch, 1 ON switch): 1; higher = weaker reporter binding
Outline: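 Normalised cluster fluorescence was curve-fitted, and each design's median over clusters is its apparent KD. Before this, SNAP-549-labelled MS2 coat protein was titrated from 0.7 or 1.5 nM, doubling to 3 µM, over RNA switches transcribed on Illumina chips by stalled E. coli RNA polymerase. Titrations had no input, 200 uM small-molecule ligand, or an oligonucleotide input, and steps lasted 0.8–1.5 h (lowest) to 10–20 min (highest).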

[1] = input ligand: microRNA oligo, concentration not stated
[2] = Eterna round: R95, input ligand: FMN 200 uM
[3] = Eterna round: R95, input ligand: microRNA oligo, concentration not stated
[4] = Eterna round: R95, input ligand: none

Sequence: AGCACGGGAUUGGAGGAUAUGUUGUUUGCAACAUGAGGAUCACCCAUGUCUGAGGCUGAAAAGCAGCAGAAGGCCGAUACAACCA [SS2-1.2] (Eterna round: R96, puzzle: Same State 2)
- apparent KD of MS2 coat protein (input ligand: FMN 200 uM): 0.0601 µM
- apparent KD of MS2 coat protein [1]: 0.154 µM
- apparent KD of MS2 coat protein (input ligand: none): 0.198 µM

Sequence: AUAGUUGCCGAAGGAUAUGAUGAUGAUCACACAUCAGAAGGUCGGCUAUUGGGUGGACAUGAGGAUCACCCGUGUUCUUUGGUC (Eterna round: R96, puzzle: Same State NG 1)
- apparent KD of MS2 coat protein (input ligand: FMN 200 uM): 0.0961 µM
- apparent KD of MS2 coat protein [1]: 0.0795 µM
- apparent KD of MS2 coat protein (input ligand: none): 0.103 µM

Sequence: GCCAACGCAUGAGGAUAUGGCACCUUAUUGGUGCCAGAAGGCAUGUGUAUUCACAUGAGGAUCACCCAUGUAUUAUAGUUGGCA [Fiskers NG1ss - 16] (Eterna round: R96, puzzle: Same State NG 1)
- apparent KD of MS2 coat protein (input ligand: FMN 200 uM): 0.0182 µM
- apparent KD of MS2 coat protein [1]: 0.132 µM
- apparent KD of MS2 coat protein (input ligand: none): 0.176 µM

Sequence: GUGGUCAGACAUGAGGAUCACCCAUGUGGAAUAAAUAACACACAGGAUAUCAAAUAUAAAAUAUAUGAGAAGGGUGGAUUGGUG (Eterna round: R96, puzzle: Same State NG 3)
- apparent KD of MS2 coat protein [1]: 0.3 µM

Sequence: AGUCCAGCCUGAGCUGGACAAAAGCAUGUACAUGAGGAUCACCCAUGUCAUGUACAAGCUUUUUGCUCGUCUAAAUA [Mat - hsa-mir-208a - Mod of JL - D27] (puzzle: Sensor for hsa-mir-208a)
- apparent KD of MS2 coat protein [2]: 0.516 µM
- apparent KD of MS2 coat protein [3]: 0.0158 µM
- apparent KD of MS2 coat protein [4]: 0.699 µM

Sequence: GUAGAAGAACUAGAGGAUAUCCGAGUGGUAACAUGAGGAUCACCCAUGUGAUGAAAGGAACAUGAGGAGAAGGCUAGAAUGAAUG [Mat - Same State 2 - Mod of JL - D83] (puzzle: Same State 2)
- apparent KD of MS2 coat protein [2]: 0.0247 µM
- apparent KD of MS2 coat protein [3]: 0.0457 µM
- apparent KD of MS2 coat protein [4]: 0.0792 µM

Sequence: AGUCCUGAAUAAAUUAAACAGAGACAUGUACAUGAGGAUCACCCAUGUCAUGUACAAGUUCUAUGCUCGUCAUAUAA [Sensorship 19 - Jieux - Sensor for hsa-mir-208a] (puzzle: Sensor for hsa-mir-208a)
- apparent KD of MS2 coat protein [2]: 0.023 µM
- apparent KD of MS2 coat protein [3]: 0.0146 µM
- apparent KD of MS2 coat protein [4]: 0.0247 µM

Sequence: AGAUGUUAAUUAGGAUAUGGACACAUGAGGAUCACCCAUGUAACGAAGAUACGAUGUGGUCAAGUCUAGAAGGGAUAGCUAACA [SameState NG2 #75] (Eterna round: R96, puzzle: Same State NG 2)
- apparent KD of MS2 coat protein (input ligand: FMN 200 uM): 0.0399 µM
- apparent KD of MS2 coat protein [1]: 0.0273 µM
- apparent KD of MS2 coat protein (input ligand: none): 0.039 µM

Sequence: AGUCCAGCCUGAGCUGGACAAAAGCAUGUACAUGAGGAUCACCCAUGUCAUGUACAAGCUUUUUGCUCGUUUUAAAA [Zipper 46 - 13] (puzzle: Sensor for hsa-mir-208a)
- apparent KD of MS2 coat protein [2]: 0.477 µM
- apparent KD of MS2 coat protein [3]: 0.0129 µM
- apparent KD of MS2 coat protein [4]: 1.01 µM

Sequence: GUAGCAUACCGAGGAUAUUCAUAUUAAAUUACAUGAGGAUCACCCAUGUAGGCCAAAAGGCCUUGGGAGAAGGCGGAAUGCUAC [Xeonanis - 20 Mod1] (Eterna round: R96, puzzle: Same State NG 2)
- apparent KD of MS2 coat protein (input ligand: FMN 200 uM): 0.0188 µM
- apparent KD of MS2 coat protein [1]: 0.0893 µM
- apparent KD of MS2 coat protein (input ligand: none): 0.102 µM

Sequence: AGAAAACAUGAGGAUCACCCAUGUAGAAAUAUGGGAGGAUAUACAAAGACGAAAGUCAAGGUAGAAGGCCUAAAGA [Mat - Same State 1 - Meechl mod - D124] (Eterna round: R96, puzzle: Same State 1)
- apparent KD of MS2 coat protein (input ligand: FMN 200 uM): 0.0196 µM
- apparent KD of MS2 coat protein [1]: 0.0704 µM
- apparent KD of MS2 coat protein (input ligand: none): 0.0987 µM

Sequence: GGAGCCUGCACUGAGGAUAUUCGUAGUGUAACAUGAGGAUCACCCAUGUGUCGCCGUAGCGACUGGGAGAAGGCAGUGCGGCUCG [JL-ss2-3.07 ViennaUCT mod] (puzzle: Same State 2)
- apparent KD of MS2 coat protein [2]: 0.0259 µM
- apparent KD of MS2 coat protein [3]: 0.0484 µM
- apparent KD of MS2 coat protein [4]: 0.0843 µM

Sequence: UUUCGGUGGCUGGAGGAUAUCCUGGUUGUUACAUGAGGAUCACCCAUGUGCCGCGCGGUGCGCUGGGAGAAGGCCGGCGGCCCUU (puzzle: Same State 2)
- apparent KD of MS2 coat protein [3]: 0.0252 µM

Sequence: AAGAAACAUGAGGAUCACCCAUGUAAUAAUAUGGGAGGAUAUACAAGGACAAUAGUCAAGGUAGAAGGCCUAAGAA [Mat - Same State 1 - Meechl mod - D142] (Eterna round: R96, puzzle: Same State 1)
- apparent KD of MS2 coat protein [1]: 0.123 µM

Sequence: AGCUAGUACCGAGGAUAUACUUACAUGAGGACUACCCAUGUAUACAUGGUUCAAUAGGACUACAUGUAGAAGGCGGUACUAGCA [jandersonlee JLSSNG2 1.24 1FMN F5CU+F7U.1] (Eterna round: R96, puzzle: Same State NG 2)
- apparent KD of MS2 coat protein (input ligand: FMN 200 uM): 0.595 µM
- apparent KD of MS2 coat protein [1]: 0.0261 µM
- apparent KD of MS2 coat protein (input ligand: none): 0.0756 µM

Sequence: AACAAUCUAUCUGAGGAUAUCAUGAGAAUAACAUGAGGAUCACCCAUGUGCAGGAAAACUGCAUAUGAGAAGGCAGAUAGAUUGG [Mat - Same State 2 - Mod - D21] (puzzle: Same State 2)
- apparent KD of MS2 coat protein [2]: 0.0786 µM
- apparent KD of MS2 coat protein [3]: 0.546 µM
- apparent KD of MS2 coat protein [4]: 2.73 µM

Sequence: UCCGCUAUCUAGAAGGAUAUGCGUAUAUAAACAUGAGGAUCACCCAUGUACCGGCGAAAACCGGUGCAGAAGGUUUAGCUAGUGA [Rediin] (Eterna round: R96, puzzle: Same State 2)
- apparent KD of MS2 coat protein (input ligand: FMN 200 uM): 0.0698 µM
- apparent KD of MS2 coat protein [1]: 0.298 µM
- apparent KD of MS2 coat protein (input ligand: none): 0.359 µM

Sequence: CUGCAACAUGAGGAUCACCCAUGUAACCCAAUUAUAGGAUAUGUGAUGGUGAUCGACAUGACAGAAGGGUGAUUGG [Arinra] (puzzle: Same State 1)
- apparent KD of MS2 coat protein [2]: 0.199 µM
- apparent KD of MS2 coat protein [3]: 0.0994 µM
- apparent KD of MS2 coat protein [4]: 0.0464 µM

Sequence: GGAAAACAUGAGGAUCACCCAUGUAAUAAUAUGGGAGGAUAUCAGAUUUAAUUUAAUUUAUGAGAAGGCCUAAAGG [Mat - Same State 1 - Mod of Eli - D64] (puzzle: Same State 1)
- apparent KD of MS2 coat protein [2]: 0.085 µM
- apparent KD of MS2 coat protein [3]: 0.0432 µM
- apparent KD of MS2 coat protein [4]: 0.0306 µM

Sequence: ACUCAGUACAAUUUAGAUCUACAUGAGGAUCACCCAUGUACUGAGGAUAUCAGCUCGAUUAGAGCUGAGAAGGCAGUUGUACUA [SSNG3/10-A2] (Eterna round: R96, puzzle: Same State NG 3)
- apparent KD of MS2 coat protein (input ligand: FMN 200 uM): 0.0823 µM
- apparent KD of MS2 coat protein [1]: 0.161 µM
- apparent KD of MS2 coat protein (input ligand: none): 0.125 µM

Sequence: GAAGAACAUGAGGAUCACCCAUGUAGGCGGAAGCUAGGAUAUGCGGGAAAGAAGAGAGAAGCAGAAGGAGUAGGUA [JR_SS1_Sub030] (puzzle: Same State 1)
- apparent KD of MS2 coat protein [2]: 0.0281 µM
- apparent KD of MS2 coat protein [3]: 0.0283 µM
- apparent KD of MS2 coat protein [4]: 0.0382 µM

Sequence: GGUAGGUUACUACCAAACAUGAGGAUCACCCAUGUAAAUGGGAAGGAUAUGGUACCGUUUCGGUACCAGAAGGUCCAAAAUAUU [JL Fiskers NG3ss - 2 final mod] (Eterna round: R96, puzzle: Same State NG 3)
- apparent KD of MS2 coat protein (input ligand: FMN 200 uM): 0.418 µM
- apparent KD of MS2 coat protein [1]: 0.356 µM
- apparent KD of MS2 coat protein (input ligand: none): 1.52 µM

Sequence: GGAUGAUUAAUAGGAUAUUAUUUGUAAAAUGGUUAAGAAGGAUUAAUGAUUUAAACGACCAGAUACAUGAGGAUCACCCAUGUA [JR_SSNG1_Sub091] (Eterna round: R96, puzzle: Same State NG 1)
- apparent KD of MS2 coat protein [1]: 0.0195 µM

Sequence: GGUGGGUUACUACCCACACAUGAGGAUCACCCAUGUAUUGGGAAGGAUAUGGUACCUAUUUGGUACCAGAAGGUCCUGAAGGUG [SS-NG3-LRO16] (Eterna round: R96, puzzle: Same State NG 3)
- apparent KD of MS2 coat protein (input ligand: FMN 200 uM): 0.638 µM
- apparent KD of MS2 coat protein [1]: 0.545 µM
- apparent KD of MS2 coat protein (input ligand: none): 1.17 µM
